# Target: the molecule itself
# Experiment: SEC
row,Protein,stoichiometry N
1,"Methanothermobacter thermautotrophicus MCM protein, wild-type (enzyme, UniProt O27798 1-666, looked up) MMKTVDKSKTLTKFEEFFSLQDYKDRVFEAIEKYPNVRSIEVDYLDLEMFDPDLADLLIEKPDDVIRAAQQAIRNIDRLRKNVDLNIRFSGISNVIPLRELRSKFIGKFVAVDGIVRKTDEIRPRIVKAVFECRGCMRHHAVTQSTNMITEPSLCSECGGRSFRLLQDESEFLDTQTLKLQEPLENLSGGEQPRQITVVLEDDLVDTLTPGDIVRVTGTLRTVRDERTKRFKNFIYGNYTEFLEQEFEELQISEEDEEKIKELAGDPNIYEKIIRSTAPSIHGYREVKEAIALQLFGGTGKELDDKTRLRGDIHILIVGDPGIGKSQMLKYVSKLAPRGIYTSGKGTSGVGLTAAAVRDEFGGWSLEAGALVLGDKGNVCVDELDKMREEDRSAIHEALEQQTISIAKAGIMATLNSRCSVLAAANPKFGRFDSYKSIAEQIDLPSTILSRFDLIFVVEDKPDEEKDRELARHILKTHKEDHMPFEIDPELLRKYIAYARKNVRPVLTDEAMQVLEDFYVSMRASAADEDSPVPITARQLEALVRLSEASAKIKLKEHVEAEDARKAIKLSQACLKQVGYDPETGKIDIDKVEGRTPKSERDKFRLLLELIKEYEDDYGGRAPTNILITEMMDRYNVSEEKVEELIRILKDKGAIFEPARGYLKIV",12
2,"Methanothermobacter thermautotrophicus MCM protein, G190A mutant (enzyme, UniProt O27798 1-666, looked up) MMKTVDKSKTLTKFEEFFSLQDYKDRVFEAIEKYPNVRSIEVDYLDLEMFDPDLADLLIEKPDDVIRAAQQAIRNIDRLRKNVDLNIRFSGISNVIPLRELRSKFIGKFVAVDGIVRKTDEIRPRIVKAVFECRGCMRHHAVTQSTNMITEPSLCSECGGRSFRLLQDESEFLDTQTLKLQEPLENLSGAEQPRQITVVLEDDLVDTLTPGDIVRVTGTLRTVRDERTKRFKNFIYGNYTEFLEQEFEELQISEEDEEKIKELAGDPNIYEKIIRSTAPSIHGYREVKEAIALQLFGGTGKELDDKTRLRGDIHILIVGDPGIGKSQMLKYVSKLAPRGIYTSGKGTSGVGLTAAAVRDEFGGWSLEAGALVLGDKGNVCVDELDKMREEDRSAIHEALEQQTISIAKAGIMATLNSRCSVLAAANPKFGRFDSYKSIAEQIDLPSTILSRFDLIFVVEDKPDEEKDRELARHILKTHKEDHMPFEIDPELLRKYIAYARKNVRPVLTDEAMQVLEDFYVSMRASAADEDSPVPITARQLEALVRLSEASAKIKLKEHVEAEDARKAIKLSQACLKQVGYDPETGKIDIDKVEGRTPKSERDKFRLLLELIKEYEDDYGGRAPTNILITEMMDRYNVSEEKVEELIRILKDKGAIFEPARGYLKIV",12
3,"Methanothermobacter thermautotrophicus MCM protein, E185R mutant (enzyme, UniProt O27798 1-666, looked up) MMKTVDKSKTLTKFEEFFSLQDYKDRVFEAIEKYPNVRSIEVDYLDLEMFDPDLADLLIEKPDDVIRAAQQAIRNIDRLRKNVDLNIRFSGISNVIPLRELRSKFIGKFVAVDGIVRKTDEIRPRIVKAVFECRGCMRHHAVTQSTNMITEPSLCSECGGRSFRLLQDESEFLDTQTLKLQEPLRNLSGGEQPRQITVVLEDDLVDTLTPGDIVRVTGTLRTVRDERTKRFKNFIYGNYTEFLEQEFEELQISEEDEEKIKELAGDPNIYEKIIRSTAPSIHGYREVKEAIALQLFGGTGKELDDKTRLRGDIHILIVGDPGIGKSQMLKYVSKLAPRGIYTSGKGTSGVGLTAAAVRDEFGGWSLEAGALVLGDKGNVCVDELDKMREEDRSAIHEALEQQTISIAKAGIMATLNSRCSVLAAANPKFGRFDSYKSIAEQIDLPSTILSRFDLIFVVEDKPDEEKDRELARHILKTHKEDHMPFEIDPELLRKYIAYARKNVRPVLTDEAMQVLEDFYVSMRASAADEDSPVPITARQLEALVRLSEASAKIKLKEHVEAEDARKAIKLSQACLKQVGYDPETGKIDIDKVEGRTPKSERDKFRLLLELIKEYEDDYGGRAPTNILITEMMDRYNVSEEKVEELIRILKDKGAIFEPARGYLKIV",12
4,"Methanothermobacter thermautotrophicus MCM protein, E182R mutant (enzyme, UniProt O27798 1-666, looked up) MMKTVDKSKTLTKFEEFFSLQDYKDRVFEAIEKYPNVRSIEVDYLDLEMFDPDLADLLIEKPDDVIRAAQQAIRNIDRLRKNVDLNIRFSGISNVIPLRELRSKFIGKFVAVDGIVRKTDEIRPRIVKAVFECRGCMRHHAVTQSTNMITEPSLCSECGGRSFRLLQDESEFLDTQTLKLQRPLENLSGGEQPRQITVVLEDDLVDTLTPGDIVRVTGTLRTVRDERTKRFKNFIYGNYTEFLEQEFEELQISEEDEEKIKELAGDPNIYEKIIRSTAPSIHGYREVKEAIALQLFGGTGKELDDKTRLRGDIHILIVGDPGIGKSQMLKYVSKLAPRGIYTSGKGTSGVGLTAAAVRDEFGGWSLEAGALVLGDKGNVCVDELDKMREEDRSAIHEALEQQTISIAKAGIMATLNSRCSVLAAANPKFGRFDSYKSIAEQIDLPSTILSRFDLIFVVEDKPDEEKDRELARHILKTHKEDHMPFEIDPELLRKYIAYARKNVRPVLTDEAMQVLEDFYVSMRASAADEDSPVPITARQLEALVRLSEASAKIKLKEHVEAEDARKAIKLSQACLKQVGYDPETGKIDIDKVEGRTPKSERDKFRLLLELIKEYEDDYGGRAPTNILITEMMDRYNVSEEKVEELIRILKDKGAIFEPARGYLKIV",12
5,"Methanothermobacter thermautotrophicus MCM protein, Q181A mutant (enzyme, UniProt O27798 1-666, looked up) MMKTVDKSKTLTKFEEFFSLQDYKDRVFEAIEKYPNVRSIEVDYLDLEMFDPDLADLLIEKPDDVIRAAQQAIRNIDRLRKNVDLNIRFSGISNVIPLRELRSKFIGKFVAVDGIVRKTDEIRPRIVKAVFECRGCMRHHAVTQSTNMITEPSLCSECGGRSFRLLQDESEFLDTQTLKLAEPLENLSGGEQPRQITVVLEDDLVDTLTPGDIVRVTGTLRTVRDERTKRFKNFIYGNYTEFLEQEFEELQISEEDEEKIKELAGDPNIYEKIIRSTAPSIHGYREVKEAIALQLFGGTGKELDDKTRLRGDIHILIVGDPGIGKSQMLKYVSKLAPRGIYTSGKGTSGVGLTAAAVRDEFGGWSLEAGALVLGDKGNVCVDELDKMREEDRSAIHEALEQQTISIAKAGIMATLNSRCSVLAAANPKFGRFDSYKSIAEQIDLPSTILSRFDLIFVVEDKPDEEKDRELARHILKTHKEDHMPFEIDPELLRKYIAYARKNVRPVLTDEAMQVLEDFYVSMRASAADEDSPVPITARQLEALVRLSEASAKIKLKEHVEAEDARKAIKLSQACLKQVGYDPETGKIDIDKVEGRTPKSERDKFRLLLELIKEYEDDYGGRAPTNILITEMMDRYNVSEEKVEELIRILKDKGAIFEPARGYLKIV",12
6,"Methanothermobacter thermautotrophicus MCM protein, L184A mutant (enzyme, UniProt O27798 1-666, looked up) MMKTVDKSKTLTKFEEFFSLQDYKDRVFEAIEKYPNVRSIEVDYLDLEMFDPDLADLLIEKPDDVIRAAQQAIRNIDRLRKNVDLNIRFSGISNVIPLRELRSKFIGKFVAVDGIVRKTDEIRPRIVKAVFECRGCMRHHAVTQSTNMITEPSLCSECGGRSFRLLQDESEFLDTQTLKLQEPAENLSGGEQPRQITVVLEDDLVDTLTPGDIVRVTGTLRTVRDERTKRFKNFIYGNYTEFLEQEFEELQISEEDEEKIKELAGDPNIYEKIIRSTAPSIHGYREVKEAIALQLFGGTGKELDDKTRLRGDIHILIVGDPGIGKSQMLKYVSKLAPRGIYTSGKGTSGVGLTAAAVRDEFGGWSLEAGALVLGDKGNVCVDELDKMREEDRSAIHEALEQQTISIAKAGIMATLNSRCSVLAAANPKFGRFDSYKSIAEQIDLPSTILSRFDLIFVVEDKPDEEKDRELARHILKTHKEDHMPFEIDPELLRKYIAYARKNVRPVLTDEAMQVLEDFYVSMRASAADEDSPVPITARQLEALVRLSEASAKIKLKEHVEAEDARKAIKLSQACLKQVGYDPETGKIDIDKVEGRTPKSERDKFRLLLELIKEYEDDYGGRAPTNILITEMMDRYNVSEEKVEELIRILKDKGAIFEPARGYLKIV",12
7,"Methanothermobacter thermautotrophicus MCM protein, P193G mutant (enzyme, UniProt O27798 1-666, looked up) MMKTVDKSKTLTKFEEFFSLQDYKDRVFEAIEKYPNVRSIEVDYLDLEMFDPDLADLLIEKPDDVIRAAQQAIRNIDRLRKNVDLNIRFSGISNVIPLRELRSKFIGKFVAVDGIVRKTDEIRPRIVKAVFECRGCMRHHAVTQSTNMITEPSLCSECGGRSFRLLQDESEFLDTQTLKLQEPLENLSGGEQGRQITVVLEDDLVDTLTPGDIVRVTGTLRTVRDERTKRFKNFIYGNYTEFLEQEFEELQISEEDEEKIKELAGDPNIYEKIIRSTAPSIHGYREVKEAIALQLFGGTGKELDDKTRLRGDIHILIVGDPGIGKSQMLKYVSKLAPRGIYTSGKGTSGVGLTAAAVRDEFGGWSLEAGALVLGDKGNVCVDELDKMREEDRSAIHEALEQQTISIAKAGIMATLNSRCSVLAAANPKFGRFDSYKSIAEQIDLPSTILSRFDLIFVVEDKPDEEKDRELARHILKTHKEDHMPFEIDPELLRKYIAYARKNVRPVLTDEAMQVLEDFYVSMRASAADEDSPVPITARQLEALVRLSEASAKIKLKEHVEAEDARKAIKLSQACLKQVGYDPETGKIDIDKVEGRTPKSERDKFRLLLELIKEYEDDYGGRAPTNILITEMMDRYNVSEEKVEELIRILKDKGAIFEPARGYLKIV",12
